Measurements from publication PMC4340503 (Nature, 2008).
Where no end group is shown, it is not given here. [ ]: non-standard residue; d: D form. pS = N[C@@H](COP(=O)(O)O)C(=O)O

Biological target: σ2 subunit of the AP2 core (σ2-adaptin 1-143) (mouse, UniProt P62743 1-142)
Test: crystal structure

σ2 subunit of the AP2 core (σ2-adaptin 1-143), sequence (P62743 whole entry, looked up, tested part not stated): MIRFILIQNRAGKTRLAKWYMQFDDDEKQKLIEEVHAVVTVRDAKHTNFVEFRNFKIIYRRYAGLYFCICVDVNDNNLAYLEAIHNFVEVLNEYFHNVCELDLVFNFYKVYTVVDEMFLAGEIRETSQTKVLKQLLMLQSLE

## RM[pS]QIKRLLSE [CD4 dileucine peptide RM(phosphoS)QIKRLLSE (Q peptide), as co-crystallised]
  binding result: binds
